Source: US20170224620A1 (Pfizer, published 2017)
Bridges are numbered along the chain shown (N, C = ends). Where no end group is shown, it is not given here. [ ]: non-standard residue; d: D form. Dip = N[C@H](C(=O)O)C(c1ccccc1)c1ccccc1; hPhe = N[C@@H](CCc1ccccc1)C(=O)O; Orn = NCCC[C@H](N)C(=O)O; Pra = C#CC[C@H](N)C(=O)O; Dap = NC[C@H](N)C(=O)O

B1: P2-58 (peptide)
peptide: H-GDP[Orn]TWEVWGREDLQGG[Pra]G-NH2
modifications: lactam 4-13
SMILES: C#CC[C@H](NC(=O)CNC(=O)CNC(=O)[C@H](CCC(N)=O)NC(=O)[C@H](CC(C)C)NC(=O)[C@@H]1CC(=O)NCCC[C@H](NC(=O)[C@@H]2CCCN2C(=O)[C@H](CC(=O)O)NC(=O)CN)C(=O)N[C@@H]([C@@H](C)O)C(=O)N[C@@H](Cc2c[nH]c3ccccc23)C(=O)N[C@@H](CCC(=O)O)C(=O)N[C@@H](C(C)C)C(=O)N[C@@H](Cc2c[nH]c3ccccc23)C(=O)NCC(=O)N[C@@H](CCCNC(=N)N)C(=O)N[C@@H](CCC(=O)O)C(=O)N1)C(=O)NCC(N)=O
B2: P2-65 (peptide)
peptide: H-GDPDTWEVWGRE[Orn]LQGG[Pra]G-NH2
modifications: lactam 4-13
SMILES: C#CC[C@H](NC(=O)CNC(=O)CNC(=O)[C@H](CCC(N)=O)NC(=O)[C@H](CC(C)C)NC(=O)[C@@H]1CCCNC(=O)C[C@H](NC(=O)[C@@H]2CCCN2C(=O)[C@H](CC(=O)O)NC(=O)CN)C(=O)N[C@@H]([C@@H](C)O)C(=O)N[C@@H](Cc2c[nH]c3ccccc23)C(=O)N[C@@H](CCC(=O)O)C(=O)N[C@@H](C(C)C)C(=O)N[C@@H](Cc2c[nH]c3ccccc23)C(=O)NCC(=O)N[C@@H](CCCNC(=N)N)C(=O)N[C@@H](CCC(=O)O)C(=O)N1)C(=O)NCC(N)=O
B3: P2-68 (peptide)
peptide: H-GDPETWEVWGRE[Orn]LQGG[Pra]G-NH2
modifications: lactam 4-13
SMILES: C#CC[C@H](NC(=O)CNC(=O)CNC(=O)[C@H](CCC(N)=O)NC(=O)[C@H](CC(C)C)NC(=O)[C@@H]1CCCNC(=O)CC[C@H](NC(=O)[C@@H]2CCCN2C(=O)[C@H](CC(=O)O)NC(=O)CN)C(=O)N[C@@H]([C@@H](C)O)C(=O)N[C@@H](Cc2c[nH]c3ccccc23)C(=O)N[C@@H](CCC(=O)O)C(=O)N[C@@H](C(C)C)C(=O)N[C@@H](Cc2c[nH]c3ccccc23)C(=O)NCC(=O)N[C@@H](CCCNC(=N)N)C(=O)N[C@@H](CCC(=O)O)C(=O)N1)C(=O)NCC(N)=O
B4: P2-96 (peptide)
peptide: DPCT[Dip]EVWGRECLQ
modifications: disulfide 3-12; not fully specified (N-terminus)
notes: P2 backbone; also called P2 with Diphenylalanine at W5
B5: P2-94 (peptide)
peptide: DPCT[hPhe]EVWGRECLQ
modifications: disulfide 3-12; not fully specified (N-terminus)
notes: P2 backbone; also called P2 with Homophenylalanine at W5
B6: P2-101 (peptide)
peptide: DPCTWEVXGRECLQ
modifications: not fully specified; 5-Methoxy Tryptophan at 8; Cys3-Cys12 disulfide
notes: P2 backbone; also called P2 with 5-Methoxy Tryptophan at W8

biological target: T1, Fc tagged recombinant human EGFR (rhEGFR-Fc, R&D systems, Cat#344-ER-050) (human, UniProt P00533 25-645); experiment: SPR
T1 construct: Bought protein; also called apo-EGFR; not shown: Fc tag
Description: Surface plasmon resonance (SPR) binding studies were carried out on a Biacore T200 instrument (GE Healthcare). […] The contact time and resulting amount of rhEGFR-Fc capture was varied based on the nature of the analyte, namely whether it was a peptide or nanoparticle.
Peptide binding assays were carried out in 10 mM PBS buffer supplemented with 0.05% surfactant P20 and 5% DMSO by volume, at 25° C. Peptides were injected over the rhEGFR-Fc surface for 60 s, followed by dissociation (buffer injection) for 60 s and regeneration with a 10 s pulse of 3M MgCl₂. A fresh rhEGFR-Fc surface was generated for each concentration of each peptide tested. Peptide binding data was analyzed by fitting to a 1:1 Langmuir kinetic model to obtain the on-rate (kₐ), off-rate (kd) and/or equilibrium binding constant (KD) of the interaction.

| binding result | KD Relative to P2 | Binder |
| --- | --- | --- |
| no binding | – | B1 |
| no binding | – | B2 |
| no binding | – | H-GDPETWEVWGRE[Dap]LQGG[Pra]G-NH2 (lactam 4-13) [P2-69] |
| no binding | – | B3 |
| no binding | – | H-GDPDTWEVWGREKLQGG[Pra]G-NH2 (lactam 4-13) [P2-64] |
| no binding | – | DPCTWEVWXRECLQGGGG (free N-terminus; Sar at 9; Cys3-Cys12 disulfide; Par at 17; C-terminal amide) [P2-43] |
| no binding | – | H-GDP[Dap]TWEVWGREDLQGG[Pra]G-NH2 (lactam 4-13) [P2-59] |
| – | 8.9 ratio | B4 |
| – | 9.1 ratio | B5 |
| no binding | – | H-GDPKTWEVWGREELQGG[Pra]G-NH2 (lactam 4-13) [P2-60] |
| – | 0.5 ratio | B6 |
| no binding | – | H-GDPDTWEVWGRE[Dap]LQGG[Pra]G-NH2 (lactam 4-13) [P2-66] |
